The nanobody polyreactivity screen of Harvey et al. (2022)

Test: yeast display, Sf9 membrane polyspecificity reagent, FACS + sequencing; frameworks hold sequencing errors
Method in brief: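 Sorting gates, low and high (top ~1%), were placed on anti-HA fluorescence to track expression and on streptavidin fluorescence to track reagent binding. A clone's polyreactivity label is taken from the gate it came out of. The reagent was 10% biotinylated, detergent-solubilized Sf9 membrane, applied for 1 hour at 4 °C to galactose-induced yeast display cells.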

Sequence | polyreactivity (PSR sort gate)
QVQLVESGGGLVQAGGSLRLSCAASGFTFTLNTMGWYRQAPGKERELVAAISSGGRTYYADSVKGRFTISRDNAKNTVYLQMNSLKPEDTAVYYCAADYTWRFLRFGYWGQGTQVTVSS | high polyreactivity
QFQLVESGGGLVQAGGSLRLSCAASGTFGSYAMGWYRHAPGKERELVASISGTGGDTYYADSVKGRFTISRDNAKNTVYLQMNSLKPEDTAVYYCAARWSRYWYLGSWLYDYWGQGSQVTVSS | high polyreactivity
QVQVVESGGALVQAGGSLRLSCAASGRTFDWNAMGWYRQAPGKERELVAAITYSGGGTYYADSVKVRFTISRDHATNTVYLQMNSLKPEDTAVYYCAAGYPGTWSYYYWGQGTQVTVSS | low polyreactivity
QVQLVESVGGLVQAGGSLRLSCAASGIIFWWYAIGWYRQAPGKERELVAAINWSGSSTYYADSVKGRFTISRDNAKNTVYLQMKSLKPEDTAVYYCATAGIIQAESEYLSGYDYWGQGTQVTVSS | high polyreactivity
QVQLVESGGGLVQAGGSLRLSCAASGRTFAWNTMGWYRQAPGKERELLAAISGSGGSTYYADSVKGRFTISRDYAKNTVYLQMNSLKPEDTAVYYCARRVDSYYGHTLYYYWGQGTQVTVSS | high polyreactivity
QLQLVESGGGLVQAGGSLRLSCAASGSTFRYYAMGWYRQAPGKERELVAAISRTGGSTYYADSVKVRFTISRDNAKNTVYLQMNSLKPEDTAVYYCNVRQFLNRYTSWDYRYHYDYWGQGSQVTVSS | high polyreactivity
QVQLVESGVGLVQAGRNLRLSCAASGIIFYLNAMGWYRQAPGKERELVAAISNGTSTNYADSVKGRFTISRDNAKNTVYLQMNSLKPEDTAVYYCAADDLRYNSRSSNYRGDSWGQGTQVTVSS | low polyreactivity
QVQLVESGGGLVQAGGRLRISCAASGSIFKGYARGWSRQAPGKERELVAAISGSGTSTYYADSVKGRFTISRDNAKNTVYLQMNSLKPEDTAVYYCATGWYTVFSSRMYSWGQGTQVTVSS | high polyreactivity
QVQLVESGGGLVQAGGSLRLTCAASGRTFEQNAMGWNRPAPGKERELVASITSVGSTDYADSVKGRFTISRDNAKNTVYLQMNSLKPEDTAVYYCAKTLGSQNYDFDYWGQGTQVTVSS | low polyreactivity
QVQLVESGGGLVQAGGSLRLSCAASGSTFWSYTMGWYRQAPGKEREWVAAISRSGGSTYYADSVKGRFTISRDNAKNTVYLQLNSLKPEDTAVYYCAAADRYGSRYYYWGQGTQVTVSS | high polyreactivity
RSGGGLVQAGGSLRLSCAPSGRIFKINAMGWYRQPPGKERALVARITRGGSTYYADSVKGRFTISRDNATNTVYLQMTSVKPEDTAVYYCAADDTGPYSNSYDYWGQGTQVTFSS | low polyreactivity
QVQLVESGGGLVQAGGSLRLSCAASGSIFDDYAMGWYRQAPGKEREFVATITTSGGNTYYADSVKGRFTISRDNAKNTVYLQMHSLKPEDTAVYYCAKDRVKSPYLVYDSWGQGTQVTVSS | low polyreactivity
QVQLVESGGGLVQAGGSLRLSCAASGRIFGWYTMGWYRQAPGKERELVAVISSGGSTNYADSVKGRFTISRDNAKNTVYLQMNSLKPEDTAVYYCAAGGQGGDFGDDYWGQGTQVTVSS | high polyreactivity
QVQLVESGGGLVQAGGSLRLSCAASGRTFRGYAMGWYRQAPGKERELVAAISVTGSSTNYADSVKGRFTISRDNAKNTVYLQMNSLKPEDTAVYYCAASYRLYKYDYWGQGTQVTVSS | high polyreactivity
QVQLVESGGGLVQAGGSLRLSCAASGYTFTLYAMGWYRQAPGKEREFVAAISIGGDSTYYADSVKGRFTISRDNAKNTVYLQMNSLKPEDTAVYYCAADTYQRWILLIGELQVETSYDYWGQGTQVTVSS | low polyreactivity
QDQLVESGGGLVQAGGSLRLSCAASGTIFFGYSMGSYRQAPGKERDLVASISSADTTYYADSVKGRFTISRDNAKNTVYLQMNSLKPEDTAVYYCAAREGQLWEDGDYWGQGTQVTVSS | low polyreactivity

Sequence | polyreactivity (PSR sort gate)
QVQLVESGGGLVQAGGSLRLSCAASGSTFKYNAMGWYRQAPGKERELDAAISSSGGSTSYADSVKGRFTISRDNAKNTVYLQMNSLKPEDTAVYYCAADSYPAYLGFVGFDYWGQGSQVTVSS | low polyreactivity
QVQLVESGGGLVQAGGSLRLSCAASGSIFIYNAMGWYRQAPGKERELVASITYRGGSTYYADSVKGRFTISRDKAKNTVYLQMNSLKPEDTAVYYCNAPQYFSYSWPYPREYDYWGQGTQVTVSS | high polyreactivity
QVQLVESGGGLVQAGGSLRLSCAASGFTFPWYAKGWYRQAPGKERELVAAITSGSSTYYADSVKGRFTISRDNAKNTVYLQMNSLKPEVTAVYYCAKDGGWSRLHYNYWGQGTQVTVSS | high polyreactivity
QVLLVESGGGLLQAGGSLRLSCAASGFTFLGYVMGWYRQAPGKEREFVADITESGGRTYYADSVKGRFTISRDNAKNTVYLQMNSLKPEDTAVYYCSGEVIFEQLNRMDYWGQGTQVTVSS | low polyreactivity
QVQLVESGGGLVQAGGSLRLSCAASGRTFRYYVMGWYRQAPGKERELVADISRGGGRTRYADSVKGRFTISRDNAKNTVDLQMNSLKPEDTAVYYCAARSYTGQFGYWGQGTQVTVSS | high polyreactivity
QVQLVESGGGLVQAGGSLRLSCAASGSIFFYAMGWYRQARGKERELVADITYTGGSKYADSVKGRFTISRDNAKNTVYLQMNSLKPEDTAVYYCAKLDGGLFDYWGQGTQVTVSS | low polyreactivity
QVQLVESGGGLVQAGGSLRLSCAASGRTFQQNAMGWYRQAPGKERELVAAINSRGGRTYYADSVKGRFTISRDTAKNTVYLQMNSLKPEDTAVYYCAARYYWGQGTQVTVSS | high polyreactivity
QVQVVESGGGLVQAGGSLRLICAASGSTFYSYAMGWYRQAPGKERELVAPISSSGVRTYYADSVKGRFTISRDNAKNTVFLQMISLKPEDTAVYYCNTYLKRYVGRGGPSYYWGQGTQVTVSS | high polyreactivity
QVQLVESGGGLVQAGGSLRLSCAASGLIFYDNMGWYRQAPGKERELVAAISSSGGSTSYADSVKGRFTISRDNAKNTVYLQMNSLKPEDTAVYYCAADQYYYWYTHQSIGYDYWGQGTQVTVSS | low polyreactivity
QVQIVESGGGLVQAGGSLRLSCAASGRTLALYTMGWYRQAPGKERELVAAINWSGTSTYYADSVKGRNTISRDNAKNTVYLQINILKPEDTAVYYCNADGSAYIEDGYDYWGQGTQVTVSS | low polyreactivity
QVQLVESGGRLFQAGGSLRLSCAASRSIFSTYGKGWYRQPPGKERELVAAITSGVGRTNYADSVKGRFTISRDNAKNTVDLQMNSLKPEDTAVNYCAVRSLGTLDVYDLATEYDYWGQGTQVTVSS | low polyreactivity
QVQLVESGGGLVQAGGSLRLSCAASGRIFYWNAMGWYRQAHGKERELVAAISWSGGSTYYADSVKGRFTISRDNAKNTVYLQMNSLKPEDTAVYYCAADGGRRTYYVKYDYWGQGTQVTASS | low polyreactivity
QVQLVESGGGLVQAGGSLRLSCAASGITFPENDMGWYIKAPGKEREFDADITSSGGNTYYADSVKGRFTISRDNAKNTVYLHMNSLKPEDSAVYYCNADDGYFYVYQGWYDEMDYWGQGTQVTVSS | high polyreactivity
QVQLVESGGGLVQAGCSLRLTCAASGFIYLSYGMGWNRQAPGKERELVASITSDGGSTYYADSVKGRFTISRDNAKYTVYLQMNSLKPEDTAVYYCAADSVSPWYYGWYYRYRGYGYCGQGTQVTVSS | low polyreactivity
QVQLVESGGGLVQAGASLRLSCAASGFIFNQYAMGWYRQAPGKERELVAGITWRGGRTYYADSVKGRFTISRDNAKNTVYLQMNSLKPEDTAVYYCAADVAHYNGGEYYYWGQGTQVTVSS | high polyreactivity
